Laboratory results: US11319368B2, “Treatment of hepatotoxicity with IL-11 antibody” (Singapore Health Services PTE LTD., priority 2019, dated 2022)
Entries after “also recorded” stand apart in the source; their conditions may differ.

Assays:
NOX4 = target: T1, NOX4 (Homo sapiens, UniProt Q9NPH5); test: NOX4 inhibitor in rhIL11-stimulated human hepatocytes; assay type: cell-based; details: rhIL11 10 ng ml^-1, 24 h
T1 construct: Human hepatocytes (5200, ScienCell) were maintained in hepatocyte medium; host or cells: primary human hepatocytes
T1 sequence (Q9NPH5 whole entry): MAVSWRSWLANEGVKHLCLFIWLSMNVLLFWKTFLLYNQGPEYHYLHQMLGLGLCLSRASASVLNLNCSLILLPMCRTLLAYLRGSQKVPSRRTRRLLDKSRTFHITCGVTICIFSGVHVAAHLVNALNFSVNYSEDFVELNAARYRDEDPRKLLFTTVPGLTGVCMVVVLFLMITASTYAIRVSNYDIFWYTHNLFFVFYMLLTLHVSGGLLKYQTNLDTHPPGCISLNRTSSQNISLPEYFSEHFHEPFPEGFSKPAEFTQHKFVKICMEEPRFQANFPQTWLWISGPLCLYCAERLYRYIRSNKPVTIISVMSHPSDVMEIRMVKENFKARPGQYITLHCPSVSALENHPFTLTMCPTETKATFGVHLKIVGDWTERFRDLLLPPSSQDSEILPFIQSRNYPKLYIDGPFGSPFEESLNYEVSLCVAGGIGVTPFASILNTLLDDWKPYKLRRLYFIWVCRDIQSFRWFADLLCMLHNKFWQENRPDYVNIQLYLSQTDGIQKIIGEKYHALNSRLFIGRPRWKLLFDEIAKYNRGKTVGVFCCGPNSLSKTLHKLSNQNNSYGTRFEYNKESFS
T1 sequence (P13498 2-195 partner limits assumed): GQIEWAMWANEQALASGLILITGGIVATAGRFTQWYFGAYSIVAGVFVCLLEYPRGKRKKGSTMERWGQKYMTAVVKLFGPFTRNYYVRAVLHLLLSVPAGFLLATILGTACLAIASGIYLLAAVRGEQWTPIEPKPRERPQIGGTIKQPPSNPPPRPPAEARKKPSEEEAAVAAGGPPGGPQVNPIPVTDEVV

human hepatocytes [1] = test: APAP-mediated activation of Erk and Jnk, western blot; assay type: cell-based; details: APAP 10 mM, 24 hours; X209 2 μg/ml
[2] = test system: APAP overdose acute liver injury; test: Severe APAP overdose in mice, anti-IL11Rα antibody (X209) 16 h before; assay type: in vivo, mouse; details: 20 mg/kg IP 16 hours before APAP 400 mg/kg
[3] = test system: APAP overdose acute liver injury; test: Severe APAP overdose in mice, X209 10 h after; assay type: in vivo, mouse
Experimental: Mice were euthanized at 24, 36 and 48 hours. Serum ALT levels were analysed as described in Example 4.
Livers were harvested, and fixed as described in Example 4, and digital photographs were taken.
Western blots were also performed on protein extracts prepared from the livers of the mice.

lethal APAP overdose = test: Lethal APAP overdose in mice, X209 10 h after; assay type: in vivo, mouse; details: for gross liver morphology / serum ALT levels versus normal (saline) control mice: day 8 after APAP 550 mg/kg, 20 mg/kg 10 h after
Experimental: Mice were euthanized at 24 hours and 192 hours (8 days). Serum ALT levels were analysed as described in Example 4. Livers were harvested, and fixed as described in Example 4, and digital photographs were taken.

[4] = test system: primary human hepatocytes; test: APAP-challenged primary human hepatocytes with X209; assay type: cell-based; details: APAP 20 mM, X209 2 μg ml^-1, 24 h
Excerpt: PI^+ve cells were quantified with the flow cytometer (Fortessa, BD Biosciences) and analyzed with FlowJo version 7 software (TreeStar).

AILI [5] = test: X209, NAC or NAC+X209 3 h after APAP in mice
Experimental: (§1) Mice were administered anti-IL11Rα (X209) or IgG isotype control antibody at different times and doses, as described above or in the figure legends.
(§2) The levels of alanine transaminase (ALT) or aspartate aminotransferase (AST) in mouse serum and hepatocyte supernatant were measured using ALT Activity (ab105134, Abcam) or AST (ab105135, Abcam) Assay Kits. Liver glutathione sulfhydryl (GSH) measurements were performed using Glutathione Colorimetric Detection Kit (EIAGSHC, Thermo Fisher). All colorimetric assays were performed according to the manufacturer's protocol.
Western blots were carried out from hepatocyte and liver tissue lysates. Hepatocytes and tissues were homogenized in radioimmunoprecipitation assay (RIPA) buffer containing protease and phosphatase inhibitors (Thermo Fisher), followed by centrifugation to clear the lysate. Protein concentrations were determined by Bradford assay (Bio-Rad). Equal amounts of protein lysates were separated by SDS-PAGE, transferred to PVDF membrane, and subjected to immunoblot analysis for the indicated primary antibodies. Proteins were visualized using the ECL detection system (Pierce) with the appropriate secondary antibodies.

AILI [6] = test: X209 preventive dosing 16 h prior to APAP in mice (6.8)
Experimental: as §1, §2
Livers were fixed for 48 h at room temperature (RT) in 10% neutral-buffered formalin (NBF), dehydrated, embedded in paraffin blocks and sectioned at 7 μm. Sections were stained with H&E according to standard protocol and examined by light microscopy.

human hepatocytes [7] = test: APAP-mediated hepatocyte death, Annexin V/PI flow cytometry; details: APAP 20 mM, 24 hours; X209 2 μg/ml
Experimental: Cells were serum-starved for 16 hours prior to their used in experiments, by culture in serum-free hepatocyte medium.
Hepatocytes were then stained using the FITC Annexin V/Dead Cell Apoptosis Kit (V13242, Thermo Fisher) according to the manufacturer's instructions, and Annexin V-FITC/PI-stained cells were analysed by flow cytometry using a BD LSRFortessa flow cytometer (BD Bioscience). 10,000 cells were analyzed per sample. Data was analyzed using FlowJo version 7 software.

[8] = test system: APAP-induced liver injury; test: Mouse model of APAP-induced liver injury, anti-IL-11Rα antibody 16 h prior to APAP (Example 2)
Experimental: Liver samples were excised and fixed for 48 hours at room temperature in 10% neutral-buffered formalin (NBF), dehydrated, embedded in paraffin blocks and sectioned at 7 μm. Sections were stained with Hematoxylin&Eosin (H&E) according to standard protocol and examined by light microscopy.

[9] = 20 mg/kg 10 h after APAP 400 mg/kg
[10] = 20 mg/kg IP 10 hours after APAP 400 mg/kg
[11] = listed as Antagonist antibody inhibitor of IL-11 mediated signalling
[12] = 10 mg/kg IP 16 hours prior to APAP 400 mg/kg

CN(C)c1cccc(-c2c3c(=O)n(-c4ccccc4Cl)[nH]c3cc(=O)n2C)c1 [GKT-13781]
IL11-stimulated GSH depletion, CASP3 activation and cell death (NOX4): prevented IL11-stimulated GSH depletion, CASP3 activation and cell death in a dose-dependent manner

B1: X209: antagonist (neutralizing) anti-IL11Rα antibody (Widjaja et al., Gastroenterology 2019; Aldevron) (antibody, V domains shown)
VH: QVQLQQPGAELVRPGSSVKLSCKASGYTFTNYWMHWLKQRPVQGLEWIGNIGPSDSKTHYNQKFKDKATLTVDKSSSTAYMQLNSLTSEDSAVYYCARGDYVLFTYWGQGTLVTVSA
VL: DIVLTQSPATLSLSPGERATLSCRASQSISNNLHWYQQKSHEAPRLLIKYASQSISGIPARFSGSGSGTDFTLSFSSLETEDFAVYFCQQSYSWPLTFGQGTKLEIK
levels of p-ERK and pJNK (human hepatocytes [1]): substantially reduce the levels of p-ERK and pJNK | hepatocyte necrosis, H&E [2]: substantially less hepatocyte necrosis | serum ALT levels ([2]; 24 hours after APAP): substantial reduction in serum ALT levels | EdU staining, nuclei with recent DNA synthesis [3, 9]: very large numbers of nuclei with evidence of recent DNA synthesis | cleaved CASP3 in liver [3, 9]: reduction in cleaved CASP3 at 24 h | liver damage (gross anatomy, histology, serum IL11, ALT and AST levels) [3, 9]: largely reversed liver damage by the second day after APAP | liver regeneration markers (PCNA, Cyclin D1/D3/E1, p-RB) [3, 9]: strong upregulation of PCNA, Cyclin D1/D3/E1, and phosphorylation of RB | gross liver morphology [3, 10]: restore gross liver morphology | hepatic ERK and JNK activation (p-ERK, pJNK1, pJNK2), western blot [3, 10]: substantially reduced the levels of p-ERK, pJNK1 and pJNK2; also recorded: effectively blocked ERK and JNK activation | serum ALT levels ([3]; 20 mg/kg IP 10 hours after APAP 400 mg/kg, 24, 36 and 48 hours): substantial reduction in serum ALT levels | survival by the study end (lethal APAP overdose; 20 mg/kg 10 h after lethal APAP 550 mg/kg, 8 days): 90% | survival relative to IgG-treated controls (lethal APAP overdose; 20 mg/kg IP 10 hours after APAP 550 mg/kg, monitored 8 days): significantly improved survival | gross liver morphology (lethal APAP overdose): normal liver morphology | serum ALT levels versus normal (saline) control mice (lethal APAP overdose): comparable to controls | gross liver morphology (lethal APAP overdose; [11]): restore gross liver morphology | serum ALT levels versus normal (saline) control mice (lethal APAP overdose; [11]): not significantly different | APAP-induced NOX4 upregulation and depletion in hepatocyte GSH levels [4]: blocked | CASP3 cleavage, cell death, ERK and JNK activation [4]: inhibited CASP3 cleavage and cell death, as well as ERK and JNK activation | JNK and ERK activation (AILI [5]; 2.5-10 mg kg^-1 3 h after APAP): Reduced JNK and ERK activation | markers of liver damage and hepatic GSH levels (AILI [5]; 2.5-10 mg kg^-1 3 h after APAP): dose-dependent improvements in markers of liver damage and in hepatic GSH levels | ALT reduction (AILI [5]; 3 h after APAP, NAC 500 mg kg^-1, X209 5 mg kg^-1): 47% | centrilobular necrosis, histology (AILI [6]; 10 mg kg^-1 16 h prior to APAP): limited histological evidence of centrilobular necrosis | hepatic GSH levels (AILI [6]; 10 mg kg^-1 16 h prior to APAP): largely restored hepatic GSH levels | reduction of serum markers of liver damage (AILI [6]; 10 mg kg^-1 16 h prior to APAP 400 mg kg^-1): over 70% | proportion of dead hepatocytes (human hepatocytes [7]): substantially reduce the proportion of dead hepatocytes | APAP-induced loss in liver mass (liver index) [8, 12]: prevent APAP-induced loss in liver mass | centrilobular necrosis, H&E liver histology [8, 12]: reduced | ALT levels lower compared to IgG control ([8]; 10 mg/kg IP 16 hours prior to APAP 400 mg/kg, 24 hours post-APAP): 55% | mobility and activity of the mice ([8]; 24 hours post-APAP treatment): normal mobility and activity
